Assay results published in PMC5745067 (Neuron, 2017).
Blank lines part the entries; values can stand above or below the molecule they belong to.

B1: extracellular domain of rat NLGN2 (Val43-His612, containing the site A insert) (domain or fragment, UniProt Q62888-1 43-612, looked up)
chain: VVNTAYGRVRGVRRELNNEILGPVVQFLGVPYATPPLGARRFQPPEAPASWPGVRNATTLPPACPQNLHGALPAIMLPVWFTDNLEAAATYVQNQSEDCLYLNLYVPTEDGPLTKKRDEATLNPPDTDIRDSGKKPVMLFLHGGSYMEGTGNMFDGSVLAAYGNVIVATLNYRLGVLGFLSTGDQAAKGNYGLLDQIQALRWLSENIAHFGGDPERITIFGSGAGASCVNLLILSHHSEGLFQKAIAQSGTAISSWSVNYQPLKYTRLLAAKVGCDREDSTEAVECLRRKSSRELVDQDVQPARYHIAFGPVVDGDVVPDDPEILMQQGEFLNYDMLIGVNQGEGLKFVEDSAESEDGVSASAFDFTVSNFVDNLYGYPEGKDVLRETIKFMYTDWADRDNGEMRRKTLLALFTDHQWVAPAVATAKLHADYQSPVYFYTFYHHCQAEGRPEWADAAHGDELPYVFGVPMVGATDLFPCNFSKNDVMLSAVVMTYWTNFAKTGDPNQPVPQDTKFIHTKPNRFEEVVWSKFNSKEKQYLHIGLKPRVRDNYRANKVAFWLELVPHLHNLH

Assays:
NLGN2-Fc = NLGN2-Fc (UniProt Q8NFZ4); test: cell-surface binding assay; details: cited from earlier work
NLGN2-Fc, sequence (Q8NFZ4 15-677): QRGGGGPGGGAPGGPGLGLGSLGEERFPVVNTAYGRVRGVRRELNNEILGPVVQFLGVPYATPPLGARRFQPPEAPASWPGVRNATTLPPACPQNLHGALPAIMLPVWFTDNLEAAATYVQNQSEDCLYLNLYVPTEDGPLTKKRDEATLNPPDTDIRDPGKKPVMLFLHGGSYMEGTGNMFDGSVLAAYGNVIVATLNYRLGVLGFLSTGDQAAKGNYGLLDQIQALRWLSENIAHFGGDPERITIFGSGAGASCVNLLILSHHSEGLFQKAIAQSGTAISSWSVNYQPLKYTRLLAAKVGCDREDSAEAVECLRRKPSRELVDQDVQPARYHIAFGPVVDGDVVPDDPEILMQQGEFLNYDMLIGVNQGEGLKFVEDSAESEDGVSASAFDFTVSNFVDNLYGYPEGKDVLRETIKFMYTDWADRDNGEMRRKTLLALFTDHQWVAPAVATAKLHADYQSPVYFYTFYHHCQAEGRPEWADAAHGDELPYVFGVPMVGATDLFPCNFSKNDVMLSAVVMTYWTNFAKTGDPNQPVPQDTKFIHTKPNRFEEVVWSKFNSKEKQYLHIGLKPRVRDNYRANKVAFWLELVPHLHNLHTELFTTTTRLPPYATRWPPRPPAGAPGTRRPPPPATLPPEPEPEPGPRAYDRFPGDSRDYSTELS

neurexin 1β = neurexin 1β (UniProt P58400); test: SPR; details: cited from earlier work
neurexin 1β, sequence (P58400 51-396): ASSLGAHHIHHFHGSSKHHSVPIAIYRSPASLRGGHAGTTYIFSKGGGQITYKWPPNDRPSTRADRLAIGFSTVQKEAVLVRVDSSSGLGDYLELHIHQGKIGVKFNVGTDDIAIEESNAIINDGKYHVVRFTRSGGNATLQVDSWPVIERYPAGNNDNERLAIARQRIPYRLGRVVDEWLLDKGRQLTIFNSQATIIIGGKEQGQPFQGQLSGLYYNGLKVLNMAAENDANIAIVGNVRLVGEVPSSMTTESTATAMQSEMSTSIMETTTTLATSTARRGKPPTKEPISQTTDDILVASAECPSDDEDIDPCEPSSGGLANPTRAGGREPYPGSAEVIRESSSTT

crystal structure = biological target: the molecule itself; test: crystal structure
[1] = biological target: B1; test: fluorescence polarisation

Molecule: MDGA1 (from UniProt Q8NFP4)
Kd (NLGN2-Fc): 7 nM

Molecule: MDGA2 (from UniProt Q7Z553)
Kd (NLGN2-Fc): 46 nM

Molecule: NLGN1 (from UniProt Q62765)
Kd (neurexin 1β): > 10000 nM

Molecule: B1
stoichiometry N (crystal structure): 2

Kd [1]: 21 nM
B2: MDGA1 C8 (Ig1–Ig2; Y22-T237) (domain or fragment, human, UniProt Q8NFP4-1 22-237, looked up)
chain: YAPAQAQIVHAGQACVVKEDNISERVYTIREGDTLMLQCLVTGHPRPQVRWTKTAGSASDKFQETSVFNETLRIERIARTQGGRYYCKAENGVGVPAIKSIRVDVQYLDEPMLTVHQTVSDVRGNFYQEKTVFLRCTVNSNPPARFIWKRGSDTLSHSQDNGVDIYEPLYTQGETKVLKLKNLRPQDYASYTCQVSVRNVCGIPDKAITFRLTNTT
modifications: TAMRA label ((5/6)-TAMRA-SE) in the FP assays; no label told for the crystals

binding result [1]: binds
B3: MDGA1 C4 (Ig1–Ig4; Y22-I433) (domain or fragment, human, UniProt Q8NFP4-1 22-433, looked up)
chain: YAPAQAQIVHAGQACVVKEDNISERVYTIREGDTLMLQCLVTGHPRPQVRWTKTAGSASDKFQETSVFNETLRIERIARTQGGRYYCKAENGVGVPAIKSIRVDVQYLDEPMLTVHQTVSDVRGNFYQEKTVFLRCTVNSNPPARFIWKRGSDTLSHSQDNGVDIYEPLYTQGETKVLKLKNLRPQDYASYTCQVSVRNVCGIPDKAITFRLTNTTAPPALKLSVNETLVVNPGENVTVQCLLTGGDPLPQLQWSHGPGPLPLGALAQGGTLSIPSVQARDSGYYNCTATNNVGNPAKKTVNLLVRSMKNATFQITPDVIKESENIQLGQDLKLSCHVDAVPQEKVTYQWFKNGKPARMSKRLLVTRNDPELPAVTSSLELIDLHFSDYGTYLCMASFPGAPVPDLSVEVNI
modifications: TAMRA label ((5/6)-TAMRA-SE) in the FP assay

binding result [1]: binds
B4: MDGA1 C2 (Ig1–Ig3; Y22-K330) (domain or fragment, human, UniProt Q8NFP4-1 22-330, looked up)
chain: YAPAQAQIVHAGQACVVKEDNISERVYTIREGDTLMLQCLVTGHPRPQVRWTKTAGSASDKFQETSVFNETLRIERIARTQGGRYYCKAENGVGVPAIKSIRVDVQYLDEPMLTVHQTVSDVRGNFYQEKTVFLRCTVNSNPPARFIWKRGSDTLSHSQDNGVDIYEPLYTQGETKVLKLKNLRPQDYASYTCQVSVRNVCGIPDKAITFRLTNTTAPPALKLSVNETLVVNPGENVTVQCLLTGGDPLPQLQWSHGPGPLPLGALAQGGTLSIPSVQARDSGYYNCTATNNVGNPAKKTVNLLVRSMK
modifications: TAMRA label ((5/6)-TAMRA-SE) in the FP assay
